Laboratory results published in US20140056903A1 (Regeneron, published 2014).

B1: H4H2292S (antibody, human IgG4, V domains shown)
VH: EVQLVESGGGVVQPGRSLRLSCAASGFTFSSYGMHWVRQAPGKGLEWVSFIWYDGSNKYYADSVKGRFTISRDNSKNTLYLQMNSLTAEDTAVYYCARRGILTGTTAFDIWGQGTMVTVSS
VL: DIQMTQSPSSLSASVGDRVTITCRASQSISSYLNWYQQKPGKAPKLLIYAASSLQSGVPSRFSGSGSGTDFTLTIRSLIPEDFATYYCQQTYNTPFTFGPGTKVEIK
notes: human IgG4 Fc (H4H)
B2: H4H2352S (antibody, human IgG4, V domains shown)
VH: EVQLVQSGAEVKKPGASVKVSCKASGYTFTNYGITWVRQAPGQGLEWMGWISAYNGNTGYAQKFQGRVTMTTDTSTSTAYMELRSLRSDDTAVYYCAREDYDFWRAFDIWGQGTMVTVSS
VL: EIVLTQSPGTLSLSPGERATLSCRASQSVSSTYLAWLQQKPGQAPRLLIYGASSRATGIPDRFSGSGSGTDFTLTINRLEPEDFAVYYCQQYAYSPYTFGQGTKLEIK
notes: human IgG4 Fc (H4H); also called H4H2352S-1
B3: H4H2243N2 (antibody, human IgG4, V domains shown)
VH: QVQLVQSGAEVKKPGASVKVSCKASGYTFTSYGIIWVRQAPGQGLEWMGWISGYNGNTNYAQNLQGRVTMTTDTSTTTAYMELRSLRSDDTAVYYCARWGIATRPYYYYGMDVWGQGTTVTVSS
VL: DIQMTQSPSSLSASVGDRVTITCRASQDITNYLAWFQQKPGKAPKSLIYAASSLQSGVPSKFSGSGSGTDFTLTISSLQPEDFATYYCQQYNSYPPTFGPGTKVDIK
notes: human IgG4 Fc (H4H)

Legend:
[1] = biological target: T1, human GFRα1 expressed with only a C-terminal human Fc tag (human); experiment: BLI Octet, antigen on anti-hFc tips, 100 ug/mL Ab
T1 construct: also called hGFRα1-hFc
Protocol: (§1) The ability of anti-GFRα3 antibodies to bind to GDNF-family receptors was assessed using an Octet Red biosensor (Fortebio, Inc.). Antibodies were tested for binding to either human GFRα1 expressed with a C-terminal human Fc tag and a hexahistidine tag (hGFRα1-hFc-6His, R&D Systems #714-GR), human GFRα1 expressed with only a C-terminal human Fc tag (hGFRα1-hFc; SEQ ID: 376), human GFRα2 expressed with a C-terminal human Fc tag and a hexahistidine tag (hGFRα2-hFc-6His, R&D Systems #613-FR), human GFRα3 expressed with a C-terminal human Fc tag (hGFRα3-hFc, SEQ ID:371), or an irrelevant human Fc tagged protein. Antigens were captured onto anti-human Fc sensor tips from 10 ug/mL solutions for 5 minutes. The coated sensor tips were then blocked with a 100 ug/mL solution of irrelevant human Fc antibodies for 5 minutes. Blocked sensor tips were then submerged into wells containing […] of each anti-GFRα3 antibody or buffer alone for 10 minutes. The experiment was performed at 25° C. with a flow rate of 1000 rpm using HBST+BSA buffer (10 mM HEPES, 150 mM NaCl, 3 mM EDTA, 0.05% w/v Surfactant P20, 0.1 mg/mL BSA, pH 7.4). The binding response (measured in units of nm) at each step of the experiment was monitored and recorded.

[2] = biological target: T2, irrelevant human Fc tagged protein; experiment: BLI Octet, antigen on anti-hFc tips, 100 ug/mL Ab
T2 construct: negative control antigen; also called Irrelevant hFc tagged protein
Protocol: as §1

[3] = biological target: T3, human GFRα3 expressed with a C-terminal myc-myc-hexahistidine tag (human, UniProt O60609 32-374, biotinylated (sites not given) in ELISA format 2 and in the Octet cross-competition; not in SPR); experiment: Octet cross-competition; biotin-hGFRα3-mmH pre-saturated with first antibody H4H2243N2
T3 construct: also called hGFRα3-mmh; hGFRα3-mmH
Protocol: (§2) A cross-competition assay was conducted to assess the ability of select antibodies to compete with one another for binding to human GFRα3 using an Octet RED384 biosensor (Fortebio Inc.). The entire experiment was performed at 25° C. with the flow rate of 1000 rpm in Octet HBST buffer (0.01 M HEPES pH7.4, 0.15M NaCl, 3 mM EDTA, 0.05% v/v Surfactant P20, 0.1 mg/mL BSA). To assess whether 2 antibodies were able to compete with one another for binding to their respective epitopes on biotinylated recombinant human GFRα3 expressed with a C-terminal myc-myc-hexahistidine tag (biotin-hGFRα3-mmH; SEQ ID:370), around ˜1.2 nm of biotin-hGFRα3-mmH was first captured onto streptavidin-coated Octet sensor tips (Fortebio Inc, #18-5019) by submerging the tips for 1 minute into a 10 μg/mL solution of biotin-hGFRα3-mmH. The antigen coated sensor tips were then placed into wells containing 25 μg/mL solution of a first anti-GFRα3 monoclonal antibody for 4 minutes to saturate the biotin-hGFRα3-mmH surface. The sensor tips were then subsequently dipped into wells containing 25 μ/mL solution of a second anti-GFRα3 monoclonal antibody. The sensor tips were washed in Octet HBST buffer in between every step of the experiment. The real-time binding response was monitored during the course of the experiment and the binding response at the end of every step was recorded as shown in FIG. 9. The response of mAb-2 binding to biotin-hGFRα3-mmH pre-complexed with the first antibody was compared and competitive/non-competitive behavior of different anti-GFRα3 monoclonal antibodies was determined.

[4] = biological target: T3, human GFRα3 expressed with a C-terminal …; experiment: Octet cross-competition; biotin-hGFRα3-mmH pre-saturated with first antibody H4H2357S
Protocol: as §2

[5] = biological target: T3, human GFRα3 expressed with a C-terminal …; experiment: Octet cross-competition; biotin-hGFRα3-mmH pre-saturated with first antibody H4H2350P
Protocol: as §2

[6] = biological target: T3, human GFRα3 expressed with a C-terminal …; experiment: blocking ELISA 2, biotin-hGFRα3-mmH to coated hARTEMIN-mmH + hRET-10His
How it was run: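 Plates coated with 1.2 ug/ml hARTEMIN-mmH plus 6.9 ug/ml hRET-10His; 1 nM biotin-hGFRα3-mmH pre-equilibrated 1 h at RT with antibody (0 to ~100 nM) before 1 h binding. Bound receptor detected by streptavidin-HRP/TMB at 450 nm; IC50 as antibody concentration halving signal.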

T1 sequence (chain, as listed by the source limits assumed): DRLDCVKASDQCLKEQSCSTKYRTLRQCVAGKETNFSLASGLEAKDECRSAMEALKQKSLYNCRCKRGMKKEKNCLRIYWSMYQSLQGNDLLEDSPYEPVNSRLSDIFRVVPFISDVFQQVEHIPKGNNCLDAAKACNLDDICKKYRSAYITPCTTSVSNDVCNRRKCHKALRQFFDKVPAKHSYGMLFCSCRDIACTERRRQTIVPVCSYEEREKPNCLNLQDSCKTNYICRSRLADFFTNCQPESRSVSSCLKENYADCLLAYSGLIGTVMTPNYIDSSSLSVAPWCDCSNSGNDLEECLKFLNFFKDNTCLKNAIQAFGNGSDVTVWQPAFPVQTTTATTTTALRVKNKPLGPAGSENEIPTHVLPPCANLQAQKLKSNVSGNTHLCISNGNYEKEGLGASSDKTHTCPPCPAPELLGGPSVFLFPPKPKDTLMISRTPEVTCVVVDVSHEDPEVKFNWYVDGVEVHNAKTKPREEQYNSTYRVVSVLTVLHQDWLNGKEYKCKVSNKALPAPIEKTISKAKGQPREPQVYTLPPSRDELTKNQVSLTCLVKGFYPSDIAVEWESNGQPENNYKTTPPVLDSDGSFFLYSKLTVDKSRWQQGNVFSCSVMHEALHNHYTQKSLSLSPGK
T3 sequence (O60609 other isoform, or with tags, fused parts or gaps limits assumed): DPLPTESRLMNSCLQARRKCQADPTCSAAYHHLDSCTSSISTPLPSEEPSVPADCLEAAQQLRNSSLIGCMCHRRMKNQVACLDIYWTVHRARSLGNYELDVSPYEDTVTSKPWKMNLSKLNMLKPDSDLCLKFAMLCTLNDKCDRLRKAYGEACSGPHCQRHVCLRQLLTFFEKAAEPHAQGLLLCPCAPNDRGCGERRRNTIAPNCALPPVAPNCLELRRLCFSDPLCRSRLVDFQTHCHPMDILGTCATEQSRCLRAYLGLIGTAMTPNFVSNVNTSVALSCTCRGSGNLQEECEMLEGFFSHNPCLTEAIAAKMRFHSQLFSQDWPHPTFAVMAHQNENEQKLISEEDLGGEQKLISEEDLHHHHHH

Binder | Bound (nm) [1] [nm] | Bound (nm) [2] [nm] | binding response of second antibody (nm) [3] [nm] | binding response of second antibody (nm) [4] [nm] | binding response of second antibody (nm) [5] [nm] | % max blocking [6] [%] | IC50 [6] [nM]
B1 | 0.05 | 0.02 | 1.7 | 1.92 | 1.74 | 100 | 1.76
B2 | 0.02 | 0.03 | 0.46 | 2 | 2.06 | 100 | 0.761
B3 | 0.03 | 0.03 | 0.06 | 0.01 | 1.72 | 95 | 1.12
